Experimental findings from publication PMC10754036 (Nature structural & molecular biology, 2018) are described below.

In this assay the target is PSD95, His tagged recombinant (UniProt P78352 1-724). As to the kind of experiment: BLI.
Sequence of PSD95, His tagged recombinant (P78352 whole entry): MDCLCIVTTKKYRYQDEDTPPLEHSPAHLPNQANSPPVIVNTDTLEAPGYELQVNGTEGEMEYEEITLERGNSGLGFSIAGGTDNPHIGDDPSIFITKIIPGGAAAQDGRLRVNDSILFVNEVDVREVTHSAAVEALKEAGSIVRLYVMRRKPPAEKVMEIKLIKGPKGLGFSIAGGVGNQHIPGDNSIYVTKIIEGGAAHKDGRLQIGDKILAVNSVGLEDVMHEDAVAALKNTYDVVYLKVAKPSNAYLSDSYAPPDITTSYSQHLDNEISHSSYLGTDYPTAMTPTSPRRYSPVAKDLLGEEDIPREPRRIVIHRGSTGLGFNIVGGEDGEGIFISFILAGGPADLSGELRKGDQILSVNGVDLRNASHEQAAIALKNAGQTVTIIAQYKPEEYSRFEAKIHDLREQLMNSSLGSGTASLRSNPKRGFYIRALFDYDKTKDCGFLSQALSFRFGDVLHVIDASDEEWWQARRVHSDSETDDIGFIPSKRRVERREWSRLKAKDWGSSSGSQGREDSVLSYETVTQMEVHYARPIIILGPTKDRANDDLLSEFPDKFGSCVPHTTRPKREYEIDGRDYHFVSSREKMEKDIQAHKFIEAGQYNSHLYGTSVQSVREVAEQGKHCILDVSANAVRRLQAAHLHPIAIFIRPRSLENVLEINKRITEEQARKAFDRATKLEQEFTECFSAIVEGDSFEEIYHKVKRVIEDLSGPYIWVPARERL

B1: NS1 of A/Brevig Mission/1/1918 (H1N1) influenza A virus, His tagged recombinant (natural protein)
chain: MDSNTVSSFQVDCFLWHVRKRFADQELGDAPFLDRLRRDQKSLRGRGSTLGLDIETATRAGKQIVERILKEESDEALKMTIASVPASRYLTDMTLEEMSRDWFMLMPKQKVAGSLCIRMDQAIMDKNIILKANFSVIFDRLETLILLRAFTEEGAIVGEISPLPSLPGHTDEDVKNAVGVLIGGLEWNDNTVRVSETLQRFAWRSSNENGRPPLPPKQKRKMARTIKSEV
Take B1: the Kd amounted to 1600 nM.

Broadly, the Kd is the constant that tells how readily two partners part at equilibrium.
